Reference: publication doi:10.1101/2024.03.05.583490

Target: IR-Rluc (insulin receptor fused to Rluc) (UniProt P06213)
Assay: FRET or BRET

Work on “IGF1R-YPET F450A (from UniProt P08069 31-1367) (receptor)” yielded a fold change in BRET50 against the wild type of 2 fold.
